The supplement of paper PMC12042874
± gives the uncertainty stated by the source.

Assay: amyloid nucleation score (Sup35N fusion, yeast selection) (log enrichment); library NNK3; higher = more nucleation; inactive = no reads after selection
Outline: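 The nucleation score is a DiMSum log enrichment of output over input reads, centred on the mode score of non-aggregating sequences. Sequences under 100 input reads were excluded, and reads came from Illumina sequencing of plasmid inserts. Psi-negative yeast expressing Sup35N fused to peptides of 20 random codons were induced with 100 μM copper sulfate for 24 hours and grown 7 days at 30°C on medium lacking adenine and uracil. Random libraries had three technical output replicates.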

Substance | amyloid nucleation score
SGSLPMRTMLFP | inactive
SGTGNGKIPMDRSVSDCVRE | 0.035 ± 0.37
SGVSWTRPIWYLNWFTQSLW | inactive
SGVYHRICSISLYQVSMR | inactive
SGVYLNVIWNCDIGDING | 1.49 ± 0.12
SGVYLTNNVWGFLYRATISG | inactive
SGWTTQVRNKDGWASQLVSE | inactive
SGYRIRVIHNMWAVGVKKRN | -0.487 ± 0.78
SHHSL | inactive
SHLDGYICYCPLLKRWIDYR | -0.035 ± 0.59
SHNLSWDIGHLGIV | inactive
SHSNKSMRVNALSKWLY | inactive
SHYFK | inactive
SIAIHWTLICGLYLSNSSRA | inactive
SICTLFACHAFAGRYTTQGG | 1.04 ± 0.2
SIDGMWTMYRRSVKYGDQFH | inactive
SIDIVVVWTGAIQDFRVLCL | -0.594 ± 1.1
SIEMQYNDMRLR | inactive
SIFIFYRYVFWRFMCDAVFS | inactive
SIFIMHGRMKF | 1.47 ± 0.072
SIFLDEIDFKIT | 0.409 ± 0.16
SIGVTCAPNNLHGCLILYRF | inactive

Substance | amyloid nucleation score
SIGWSMFDNSMVREIRTRTC | inactive
SIIGGWCGNE | inactive
SIIRNKFVAMNMNSVNM | 0.831 ± 0.095
SINDLGLWNVTVKFLCK | -0.037 ± 0.63
SIPRRNRDGLAWNARHNLQY | inactive
SIRISLEISGYSELSITFSC | inactive
SISAKVGSSGRLGRSPYRVD | inactive
SISQTIVCTRPRVSAMIWFC | inactive
SISWRYATTSDVSLWIFVQT | inactive
SITDESASPPSRWKLGRFR | inactive
SITRELGNETLYSLLGPRAF | inactive
SIVHGMA | inactive
SIVSRLF | inactive
SIWKISTRMQTFFCRNM | 1.46 ± 0.1
SKACAVLAYNLVGFEFHFEF | 1.69 ± 0.074
SKALVSLWFLISMMNPYFIR | inactive
SKARQEL | inactive
SKDGSSSTRQVTIVGRVLVF | inactive
SKFRFGRVNLNVT | inactive
SKHIIFSFIGDLI | 0.654 ± 0.11
SKPLYNSWIPMCLLFKVPPF | inactive
SKPSYFHNFLFDKMSDRLCT | inactive

Substance | amyloid nucleation score
SKPYYYMVYIESEVVVYLFG | inactive
SKRFAIAEQVCNSF | inactive
SKRFSLGI | inactive
SKSHLTIVSSYDHFHYMVRV | inactive
SKSLMMDLCTYCHYLNVYRE | inactive
SKTGGFFNAVHASCPGVPLQ | inactive
SKTVDNGKMRKDWLGRQPWK | -0.362 ± 0.51
SLAIMCCKIWPLLIMYILIT | inactive
SLCTSEYFHSTYRNITGLVL | inactive
SLCWSLNGFNLLISFDFRRN | 0.785 ± 0.14
SLGMMVWVH | inactive
SLGSVVTSFASEMWTADGTR | inactive
SLIFQDGGDNVNDLKVCVDY | inactive
SLIGSRGPLNSGEVMMMLFK | inactive
SLIITTLTHEYCMCHRIWST | 2.25 ± 0.071
SLISNCPIVWNRIWISYHFH | 0.738 ± 0.3
SLISSALDIISDRYGLHVNN | inactive
SLIWPSYDYLDNFLGYYSLK | inactive
SLKFIELDMSIVVMSSDYFR | inactive
SLKRHQTWLDGVEVRVVYMP | inactive
